Source: patent publication US20060002928A1

How the values were obtained:
[1] = biological target: murine B7-DC (murine) (UniProt Q9WUL5); experiment: cell-based or functional assay
[2] = biological target: murine B7-DC (murine) (UniProt Q9WUL5); experiment: flow cytometry on 293T cells transfected with murine B7-DC
[3] = biological target: murine B7-DC (murine) (UniProt Q9WUL5); experiment: flow cytometry competition on murine DC; preincubation with sHIgM12, staining with PD-1.Ig as competitor read out
[4] = biological target: murine B7-DC (murine) (UniProt Q9WUL5); experiment: flow cytometry competition on murine bone marrow derived DC; preincubation with PD-1.Ig, staining with sHIgM12 as competitor read out

murine B7-DC (murine), sequence (Q9WUL5 20-247): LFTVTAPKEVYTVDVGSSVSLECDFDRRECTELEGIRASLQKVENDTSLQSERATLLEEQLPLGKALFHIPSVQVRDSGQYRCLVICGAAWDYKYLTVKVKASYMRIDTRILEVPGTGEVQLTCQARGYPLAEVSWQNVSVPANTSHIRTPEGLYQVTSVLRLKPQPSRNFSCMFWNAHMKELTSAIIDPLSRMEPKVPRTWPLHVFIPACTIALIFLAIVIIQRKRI

Row | GFP+, CD11c+ DC recovered from draining lymph nodes after adoptive transfer [1] | IL-12 p70 release by DC (ELISA of culture supernatants) [1] | ability of lymph node DC to induce an antigen-specific T cell response [1] | percentage of cellular metabolism (Alamar Blue) maintained 24 hours after cytokine withdrawal from DC [1] | percent of transfected cells stained [2] | PD-1 binding left, percent of the level without sHIgM12 [3] | sHIgM12 staining left, percent of the level without PD-1 [4] | Substance
1 | 5 fold | 3 fold | 10 fold | 80% | 97% | 20% |  | sHIgM12 (human monoclonal IgM antibody, pentameric, purified from patient serum)
2 |  |  |  |  |  |  | 50% | PD-1.Ig fusion protein (Fc fusion)
